Reference: IntAct's records for PubMed 20485341

B1: Interleukin-1 receptor-associated kinase 4 (Homo sapiens), Q9NWZ3 (parent)
chain: MNKPITPSTYVRCLNVGLIRKLSDFIDPQEGWKKLAVAIKKPSGDDRYNQFHIRRFEALLQTGKSPTSELLFDWGTTNCTVGDLVDLLIQNEFFAPASLLLPDAVPKTANTLPSKEAITVQQKQMPFCDKDRTLMTPVQNLEQSYMPPDSSSPENKSLEVSDTRFHSFSFYELKNVTNNFDERPISVGGNKMGEGGFGVVYKGYVNNTTVAVKKLAAMVDITTEELKQQFDQEIKVMAKCQHENLVELLGFSSDGDDLCLVYVYMPNGSLLDRLSCLDGTPPLSWHMRCKIAQGAANGINFLHENHHIHRDIKSANILLDEAFTAKISDFGLARASEKFAQTVMTSRIVGTTAYMAPEALRGEITPKSDIYSFGVVLLEIITGLPAVDEHREPQLLLDIKEEIEDEEKTIEDYIDKKMNDADSTSVEAMYSVASQCLHEKKNKRPDIKKVQQLLQEMTAS
B2: Interleukin-1 receptor-associated kinase 4 (Homo sapiens), Q9NWZ3 (parent)
chain: B1 chain
partner: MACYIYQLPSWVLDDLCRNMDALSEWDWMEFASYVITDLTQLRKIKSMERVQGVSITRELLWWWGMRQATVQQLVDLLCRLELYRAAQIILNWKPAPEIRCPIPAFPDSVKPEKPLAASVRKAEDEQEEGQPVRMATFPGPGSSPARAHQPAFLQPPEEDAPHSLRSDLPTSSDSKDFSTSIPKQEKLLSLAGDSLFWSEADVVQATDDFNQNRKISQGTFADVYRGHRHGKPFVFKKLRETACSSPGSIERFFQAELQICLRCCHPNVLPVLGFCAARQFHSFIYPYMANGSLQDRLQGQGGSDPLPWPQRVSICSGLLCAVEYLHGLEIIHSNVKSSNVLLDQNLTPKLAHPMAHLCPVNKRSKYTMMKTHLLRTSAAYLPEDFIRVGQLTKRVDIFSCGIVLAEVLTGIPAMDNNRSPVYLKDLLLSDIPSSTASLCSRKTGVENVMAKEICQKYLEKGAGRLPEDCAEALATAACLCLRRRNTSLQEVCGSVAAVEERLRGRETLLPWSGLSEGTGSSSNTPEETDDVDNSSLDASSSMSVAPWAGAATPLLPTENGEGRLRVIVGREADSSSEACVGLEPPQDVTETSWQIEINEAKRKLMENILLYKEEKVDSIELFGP

Variants of: B1
Details: with MYD88, Q99836-1
MYD88, Q99836-1, sequence (Q99836 whole entry): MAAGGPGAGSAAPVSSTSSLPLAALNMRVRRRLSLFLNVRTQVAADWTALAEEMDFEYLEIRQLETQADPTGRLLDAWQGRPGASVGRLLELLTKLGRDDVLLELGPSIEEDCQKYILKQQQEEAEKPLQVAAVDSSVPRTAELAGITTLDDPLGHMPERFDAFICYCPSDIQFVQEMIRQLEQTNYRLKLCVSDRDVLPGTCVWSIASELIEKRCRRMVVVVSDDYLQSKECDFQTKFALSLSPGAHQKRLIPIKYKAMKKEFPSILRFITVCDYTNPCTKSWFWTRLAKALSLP

Effect of a mutation on the interaction, disrupting interaction:
V16E;R20E
N78E
E69K
T76E
R12A

Variants of: B2
Details: with irak2_human IRAK2, O43187

Effect of a mutation on the interaction, disrupting interaction:
F51D
F25D
Q50K
A95K
R54D
